The labels stand for the following.
B3: LpoA, purified (natural protein, Escherichia coli, UniProt P45464 27-678, looked up)
chain: CGTHTPDQSTAYMQGTAQADSAFYLQQMQQSSDDTRINWQLLAIRALVKEGKTGQAVELFNQLPQELNDAQRREKTLLAVEIKLAQKDFAGAQNLLAKITPADLEQNQQARYWQAKIDASQGRPSIDLLRALIAQEPLLGAKEKQQNIDATWQALSSMTQEQANTLVINADENILQGWLDLQRVWFDNRNDPDMMKAGIADWQKRYPNNPGAKMLPTQLVNVKAFKPASTNKIALLLPLNGQAAVFGRTIQQGFEAAKNIGTQPVAAQVAAAPAADVAEQPQPQTVDGVASPAQASVSDLTGEQPAAQPVPVSAPATSTAAVSAPANPSAELKIYDTSSQPLSQILSQVQQDGASIVVGPLLKNNVEELLKSNTPLNVLALNQPENIENRVNICYFALSPEDEARDAARHIRDQGKQAPLVLIPRSSLGDRVANAFAQEWQKLGGGTVLQQKFGSTSELRAGVNGGSGIALTGSPITLRATTDSGMTTNNPTLQTTPTDDQFTNNGGRVDAVYIVATPGEIAFIKPMIAMRNGSQSGATLYASSRSAQGTAGPDFRLEMEGLQYSEIPMLAGGNLPLMQQALSAVNNDYSLARMYAMGVDAWSLANHFSQMRQVQGFEINGNTGSLTANPDCVINRNLSWLQYQQGQVVPVS
modifications: where used as the labelled protein in MST: NT647 RED-Maleimide dye on cysteines
notes: called LpoA^sol in the TPase methods; also called LpoA^sol; fl-LpoA; source: purified as described previously in Jean et al (2014)
B4: PBP4, native, purified (enzyme, Escherichia coli, UniProt P24228 21-477, looked up)
chain: ANVDEYITQLPAGANLALMVQKVGASAPAIDYHSQQMALPASTQKVITALAALIQLGPDFRFTTTLETKGNVENGVLKGDLVARFGADPTLKRQDIRNMVATLKKSGVNQIDGNVLIDTSIFASHDKAPGWPWNDMTQCFSAPPAAAIVDRNCFSVSLYSAPKPGDMAFIRVASYYPVTMFSQVRTLPRGSAEAQYCELDVVPGDLNRFTLTGCLPQRSEPLPLAFAVQDGASYAGAILKDELKQAGITWSGTLLRQTQVNEPGTVVASKQSAPLHDLLKIMLKKSDNMIADTVFRMIGHARFNVPGTWRAGSDAVRQILRQQAGVDIGNTIIADGSGLSRHNLIAPATMMQVLQYIAQHDNELNFISMLPLAGYDGSLQYRAGLHQAGVDGKVSAKTGSLQGVYNLAGFITTASGQRMAFVQYLSGYAVEPADQRNRRIPLVRFESRLYKDIYQNN
modifications: where used as the labelled protein in MST: NT647 RED-NHS dye on amines
notes: PBP4 (DD-endopeptidase) of E. coli, 'native PBP4' purified after Kishida et al (2006); Untagged ('native'); source: E. coli BL21 (λDE3), purified (HiTrap Q, hydroxyapatite, Superdex 200)

Holding throughout (settings): both partners purified
One assay deals with T1, PBP1A, purified (Escherichia coli, UniProt P02918 1-850, NT647 RED-NHS dye on amines (PBP1A was the labelled protein in all MST assays)).
T1 construct: Bifunctional peptidoglycan synthase PBP1A of E. coli; also called fl-PBP1A (fluorescently labelled); source: purified as described previously in Born et al (2006)
T1 sequence (looked up): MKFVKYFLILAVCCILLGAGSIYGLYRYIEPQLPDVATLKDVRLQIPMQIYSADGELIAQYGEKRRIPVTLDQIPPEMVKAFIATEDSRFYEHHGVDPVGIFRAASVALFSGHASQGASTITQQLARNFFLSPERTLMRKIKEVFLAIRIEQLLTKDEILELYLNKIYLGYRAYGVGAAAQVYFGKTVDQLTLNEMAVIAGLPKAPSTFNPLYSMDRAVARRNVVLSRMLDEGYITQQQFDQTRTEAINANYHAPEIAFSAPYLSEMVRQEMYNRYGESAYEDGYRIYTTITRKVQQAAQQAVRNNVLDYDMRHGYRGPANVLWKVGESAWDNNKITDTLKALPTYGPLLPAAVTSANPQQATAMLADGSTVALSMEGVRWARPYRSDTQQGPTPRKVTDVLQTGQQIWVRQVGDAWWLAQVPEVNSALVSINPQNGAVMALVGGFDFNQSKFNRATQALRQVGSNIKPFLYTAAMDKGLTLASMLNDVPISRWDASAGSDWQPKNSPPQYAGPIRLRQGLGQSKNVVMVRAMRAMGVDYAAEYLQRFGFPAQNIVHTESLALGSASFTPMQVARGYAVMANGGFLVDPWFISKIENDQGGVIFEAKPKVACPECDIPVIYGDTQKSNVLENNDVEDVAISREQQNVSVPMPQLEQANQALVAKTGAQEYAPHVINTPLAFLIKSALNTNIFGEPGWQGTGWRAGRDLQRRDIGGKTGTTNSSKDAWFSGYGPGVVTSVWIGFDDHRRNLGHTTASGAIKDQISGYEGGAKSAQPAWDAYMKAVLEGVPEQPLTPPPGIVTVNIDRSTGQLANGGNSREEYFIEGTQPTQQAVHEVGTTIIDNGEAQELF
Briefly: MST; titration: NT647-labelled protein against a two-fold serial dilution (16 steps) of unlabelled ligand; 25 mM HEPES/NaOH, 150 mM NaCl, 0.05% Triton X-100, pH 7.5; Monolith NT.115; apparent constants; for NlpI with itself: dimer to monomers.

In assay [1] the target is T2, NlpI, soluble version lacking its membrane anchor (Escherichia coli, UniProt P0AFB1 20-294, where used as fl-NlpI in MST: NT647 RED-NHS dye on amines).
T2 construct: Outer membrane lipoprotein NlpI of E. coli, soluble version lacking its membrane anchor; Homodimer by AUC; also called fl-NlpI (fluorescently labelled); His-NlpI; source: E. coli BL21 (λDE3), purified (HisTrap HP, Superdex 200)
Described as above.

Assay [2] has as its target T3, pre-formed NlpI-PBP4 complex (Escherichia coli, UniProt P0AFB1 20-294; P24228 21-477).
T3 construct: NlpI of E. coli, soluble version lacking its membrane anchor, as the chain of m1; PBP4 of E. coli, native, as the chain of m5; NlpI 3 μM with excess PBP4 30 μM for assays with labelled MepS or LpoA; PBP4 0.5 μM with NlpI 1 μM for assays with labelled PBP1A; also called PBP4‐NlpI complex; PBP4‐NlpI; source: pre-formed from purified NlpI and purified PBP4, on ice for 10 min
Briefly: MST; fixed ligand concentration assay: labelled MepS, LpoA or PBP1A with fixed unlabelled NlpI, PBP4, PBP7 or pre-formed complexes (NlpI 3 μM with 30 μM PBP4 or PBP7 for fl-MepS and fl-LpoA; PBP4 0.5 μM with NlpI 1 μM for fl-PBP1A); FNorm, or raw fluorescence for LpoA.

The assay “LpoA, purified” addresses B3. Briefly: MST; titration: NT647-labelled protein against a two-fold serial dilution (16 steps) of unlabelled ligand; 25 mM HEPES/NaOH, 150 mM NaCl, 0.05% Triton X-100, pH 7.5; Monolith NT.115; apparent constants; for NlpI with itself: dimer to monomers.
The assay “PBP4, native, purified” concerns the target B4. The assay is described as follows: MST + pull-down; endopeptidases tested against each other, 'a combination of MST and Ni2+-NTA pull-down assays'; all combinations of MepM, MepS, PBP4, PBP7.

T2 sequence (P0AFB1 20-294): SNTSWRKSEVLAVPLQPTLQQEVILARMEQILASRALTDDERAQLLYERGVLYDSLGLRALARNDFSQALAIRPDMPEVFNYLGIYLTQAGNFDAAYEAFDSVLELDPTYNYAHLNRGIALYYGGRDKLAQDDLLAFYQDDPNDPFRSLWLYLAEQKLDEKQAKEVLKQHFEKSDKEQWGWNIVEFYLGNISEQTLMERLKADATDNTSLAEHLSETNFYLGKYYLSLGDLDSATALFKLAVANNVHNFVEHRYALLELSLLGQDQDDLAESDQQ
T3 sequence (P0AFB1 20-294, one chain of several): as the sequence (P0AFB1 20-294) above

B1: MepS(C68A), catalytically inactive MepS (enzyme, Escherichia coli, UniProt P0AFV4 27-188, looked up)
chain: CSANNTAKNMHPETRAVGSETSSLQASQDEFENLVRNVDVKSRIMDQYADWKGVRYRLGGSTKKGIDASGFVQRTFREQFGLELPRSTYEQQEMGKSVSRSNLRTGDLVLFRAGSTGRHVGIYIGNNQFVHASTSSGVIISSMNEPYWKKRYNEARRVLSRS
notes: Peptidoglycan endopeptidase MepS of E. coli with C68A; the results call it MepS; source: E. coli BL21 (λDE3), purified (HisTrap HP, Superdex 200)
As for B1, in the assay with PBP1A, purified, the Kd was 91 nM.

B2: MepS (enzyme, Escherichia coli, UniProt P0AFV4 27-188, looked up)
chain: CSANNTAKNMHPETRAVGSETSSLQASQDEFENLVRNVDVKSRIMDQYADWKGVRYRLGGSTKKGIDCSGFVQRTFREQFGLELPRSTYEQQEMGKSVSRSNLRTGDLVLFRAGSTGRHVGIYIGNNQFVHASTSSGVIISSMNEPYWKKRYNEARRVLSRS
modifications: where used as fl-MepS in MST: NT647 RED-NHS dye on amines
notes: Peptidoglycan endopeptidase MepS of E. coli, from pET21b-MepS-His (Singh et al, 2012); Construct from Singh et al, 2012; The methods list only MepS(C68A) as an unlabelled MST ligand; wild-type MepS is the labelled protein; also called fl-MepS (fluorescently labelled); MepS-His; source: E. coli BL21 (λDE3), purified (HisTrap HP, Superdex 200)
On to B2, for which the Kd in assay [1] was 145 nM.

On to B3, for which the binding result in assay [2] is “binds”.

Regarding B4, the Kd with PBP1A, purified was determined as 106 nM; with LpoA, purified, 315 nM.

B5: PBP7, purified (enzyme, Escherichia coli, UniProt P0AFI5 26-310, looked up)
chain: KTAAATTASQPEIASGSAMIVDLNTNKVIYSNHPDLVRPIASISKLMTAMVVLDARLPLDEKLKVDISQTPEMKGVYSRVRLNSEISRKDMLLLALMSSENRAAASLAHHYPGGYKAFIKAMNAKAKSLGMNNTRFVEPTGLSVHNVSTARDLTKLLIASKQYPLIGQLSTTREDMATFSNPTYTLPFRNTNHLVYRDNWNIQLTKTGFTNAAGHCLVMRTVINNKPVALVVMDAFGKYTHFADASRLRTWIETGKVMPVPAAALSYKKQKAAQMAAAGQTAQND
modifications: where used as the labelled protein in MST: NT647 RED-NHS dye on amines
notes: PBP7 (DD-endopeptidase) of E. coli; source: E. coli BL21 (λDE3), purified (HisTrap HP, Superdex 200)
One may read the EC50 as the concentration that produces a half-maximal response. Regarding B5, the binding result with PBP4, native, purified is “binds”. Further, the Kd with PBP1A, purified came to 101 nM; with LpoA, purified it was 217 nM. Also, the concentration for a half-maximal effect (EC50) in assay [1] worked out at 422 nM.

Source of the values: publication PMC7049810, “Outer membrane lipoprotein NlpI scaffolds peptidoglycan hydrolases within multi‐enzyme complexes in Escherichia coli” (The EMBO Journal, 2020).
